Experiments:
[1] = biological target: human IgG (available from the Chemo-Sero-Therapeutic Research Institute) (human); assay: binding capacity; binder immobilised on agarose gel, 40 mg/mL human IgG, acid elution, A280
[2] = biological target: human IgG (available from the Chemo-Sero-Therapeutic Research Institute) (human); assay: binding capacity against Capto L
[3] = biological target: Fab prepared by papain treatment of human IgG (human); assay: binding capacity against Capto L
[4] = biological target: human IgG (available from the Chemo-Sero-Therapeutic Research Institute) (human); assay: binding capacity; binder immobilised on agarose gel, human IgG
[5] = biological target: Fab prepared by papain treatment of human IgG (human); assay: binding capacity; binder immobilised on agarose gel, 20 mg/mL human Fab, acid elution, A280
[6] = biological target: human IgG (available from the Chemo-Sero-Therapeutic Research Institute) (human); assay: binding capacity; binder immobilised on agarose gel, human IgG, acid elution, A280

| Binder | IgG Binding Capacity [6] [mg/mL gel] | also measured |
| --- | --- | --- |
| chimeric protein PL-021 containing immunoglobulin-binding domain 1 of Protein L (designed binder) MAQHDEAGLALETPEPEEEVTIKANLIFADGSTQNAEFKGTFAKAVSDAYAYADALKKDNGEYTVDVADKGLTLNIKFAGALPSKSKKILKEAKKLNKAQAPKKKK |  | IgG Binding Capacity [1]: 45.3 mg/mL gel |
| tetrameric multidomain polypeptide PL-424 (four linked modified domains of PL-024) (designed binder) AQHDEAGLALETPEEPREEVTIRVNLIFADGRTQTAEFRGTFEEATAEAYRYADLLARVNGEYTADLEDGGYTINIRFAGALETPEEPREEVTIRVNLIFADGRTQTAEFRGTFEEATAEAYRYADLLARVNGEYTADLEDGGYTINIRFAGALETPEEPREEVTIRVNLIFADGRTQTAEFRGTFEEATAEAYRYADLLARVNGEYTADLEDGGYTINIRFAGALETPEEPREEVTIRVNLIFADGRTQTAEFRGTFEEATAEAYRYADLLARVNGEYTADLEDGGYTINIRFAGALPSKSKKILKEAKKLNKAQAPKKKK | 91.6 | amount of bound IgG relative to Capto L [2]: 2.2 times; amount of bound Fab fragment relative to Capto L [3]: 2.4 times; human IgG binding capacity relative to PL-024 [4]: 144%; Fab Binding Capacity [5]: 72.4 mg/mL gel |
| chimeric protein PL-014 containing immunoglobulin-binding domain 4 of Protein L (designed binder) MAQHDEAGLALETPEEPKEEVTIKVNLIFADGKTQTAEFKGTFEEATAEAYRYADLLAKVNGEYTADLEDGGYTINIKFAGALPSKSKKILKEAKKLNKAQAPKKKK | 57 | IgG Binding Capacity [1]: 57.4 mg/mL gel |
| modified product PL-026 of immunoglobulin-binding domain 4 (designed binder) MAQHDEAGLALEKPEEPREEVTIRVNLIFADGKTQTAEFKGTFEEATAEAYRYADLLAKVNGEYTADLEDGGYTINIKFAGALPSKSKKILKEAKKLNKAQAPKKKK | 57.8 |  |
| modified product PL-053 of immunoglobulin-binding domain 4 (designed binder) MAQHDEAGLALEKPEEPREEVTIRVNLIFADGETQTAEFKGTFEEATAEAYRYADLLAKVNGEYTADLEDGGYTINIKFAGALPSKSKKILKEAKKLNKAQAPKKKK | 55.9 |  |
| modified product PL-045 of immunoglobulin-binding domain 4 (designed binder) MAQHDEAGLALERPEEPKEEVTIKVNLIFADGRTQTAEFKGTFEEATAEAYRYADLLAKVNGEYTADLEDGGYTINIKFAGALPSKSKKILKEAKKLNKAQAPKKKK | 60.6 |  |
| modified product PL-055 of immunoglobulin-binding domain 4 (designed binder) MAQHDEAGLALEKPEEPREEVTIRVNLIFADGFTQTAEFKGTFEEATAEAYRYADLLAKVNGEYTADLEDGGYTINIKFAGALPSKSKKILKEAKKLNKAQAPKKKK | 57.3 |  |
| modified product PL-049 of immunoglobulin-binding domain 4 (designed binder) MAQHDEAGLALEKPEEPREEVTIRVNLIFADGRTQTAEFRGTFEEATAEAYRYADLLAKVNGEYTADLEDGGYTINIKFAGALPSKSKKILKEAKKLNKAQAPKKKK | 59.7 |  |
| modified product PL-050 of immunoglobulin-binding domain 4 (designed binder) MAQHDEAGLALEKPEEPREEVTIRVNLIFADGTTQTAEFKGTFEEATAEAYRYADLLAKVNGEYTADLEDGGYTINIKFAGALPSKSKKILKEAKKLNKAQAPKKKK | 59 |  |
| modified product PL-036 of immunoglobulin-binding domain 4 (designed binder) MAQHDEAGLALEKPEEPREEVTIRVNLIFADGRTQTAEFKGTFEEATAEAYRYADLLAKVNGEYTADLEDGGYTINIKFAGALPSKSKKILKEAKKLNKAQAPKKKK | 59.1 |  |
| chimeric protein PL-023 containing immunoglobulin-binding domain 3 of Protein L (designed binder) MAQHDEAGLALETPEEPKEEVTIKVNLIFADGKIQTAEFKGTFEEATAKAYAYANLLAKENGEYTADLEDGGNTINIKFAGALPSKSKKILKEAKKLNKAQAPKKKK | 52.2 | IgG Binding Capacity [1]: 52.2 mg/mL gel |
| modified product PL-052 of immunoglobulin-binding domain 4 (designed binder) MAQHDEAGLALEKPEEPREEVTIRVNLIFADGHTQTAEFKGTFEEATAEAYRYADLLAKVNGEYTADLEDGGYTINIKFAGALPSKSKKILKEAKKLNKAQAPKKKK | 58.5 |  |
| modified product PL-047 of immunoglobulin-binding domain 4 (designed binder) MAQHDEAGLALEKPEEPKEEVTIRVNLIFADGRTQTAEFKGTFEEATAEAYRYADLLAKVNGEYTADLEDGGYTINIKFAGALPSKSKKILKEAKKLNKAQAPKKKK | 59.2 |  |
| modified product PL-028 of immunoglobulin-binding domain 4 (designed binder) MAQHDEAGLALEKPEEPKEEVTIKVNLIFADGKTQTAEFRGTFEEATAEAYRYADLLARVNGEYTADLEDGGYTINIRFAGALPSKSKKILKEAKKLNKAQAPKKKK | 60.1 | increase of binding capacity against PL-014 [4]: 5% |
| modified product PL-043 of immunoglobulin-binding domain 4 (designed binder) MAQHDEAGLALERPEEPKEEVTIKVNLIFADGKTQTAEFKGTFEEATAEAYRYADLLAKVNGEYTADLEDGGYTINIKFAGALPSKSKKILKEAKKLNKAQAPKKKK | 59.3 |  |
| modified product PL-038 of immunoglobulin-binding domain 4 (designed binder) MAQHDEAGLALERPEEPREEVTIRVNLIFADGRTQTAEFRGTFEEATAEAYRYADLLARVNGEYTADLEDGGYTINIRFAGALPSKSKKILKEAKKLNKAQAPKKKK | 63.6 | increase of binding capacity against PL-014 [4]: 11% |

| Binder | IgG Binding Capacity [6] [mg/mL gel] | also measured |
| --- | --- | --- |
| modified product PL-054 of immunoglobulin-binding domain 4 (designed binder) MAQHDEAGLALEKPEEPREEVTIRVNLIFADGQTQTAEFKGTFEEATAEAYRYADLLAKVNGEYTADLEDGGYTINIKFAGALPSKSKKILKEAKKLNKAQAPKKKK | 58.4 |  |
| modified product PL-046 of immunoglobulin-binding domain 4 (designed binder) MAQHDEAGLALEKPEEPREEVTIKVNLIFADGRTQTAEFKGTFEEATAEAYRYADLLAKVNGEYTADLEDGGYTINIKFAGALPSKSKKILKEAKKLNKAQAPKKKK | 59.7 |  |
| modified product PL-048 of immunoglobulin-binding domain 4 (designed binder) MAQHDEAGLALEKPEEPKEEVTIRVNLIFADGRTQTAEFRGTFEEATAEAYRYADLLAKVNGEYTADLEDGGYTINIKFAGALPSKSKKILKEAKKLNKAQAPKKKK | 57.9 |  |
| modified product PL-027 of immunoglobulin-binding domain 4 (designed binder) MAQHDEAGLALETPEEPREEVTIRVNLIFADGRTQTAEFKGTFEEATAEAYRYADLLAKVNGEYTADLEDGGYTINIKFAGALPSKSKKILKEAKKLNKAQAPKKKK | 58.6 |  |
| chimeric protein PL-022 containing immunoglobulin-binding domain 2 of Protein L (designed binder) MAQHDEAGLALEKPEEPKEEVTIKVNLIFADGKTQTAEFKGTFEEATAKAYAYADLLAKENGEYTADLEDGGNTINIKFAGALPSKSKKILKEAKKLNKAQAPKKKK |  | IgG Binding Capacity [1]: 53.3 mg/mL gel |
| modified product PL-060 of immunoglobulin-binding domain 4 (designed binder) MAQHDEAGLALEKPEEPTEEVTIRVNLIFADGRTQTAEFKGTFEEATAEAYRYADLLAKVNGEYTADLEDGGYTINIKFAGALPSKSKKILKEAKKLNKAQAPKKKK | 57.6 |  |
| modified product PL-056 of immunoglobulin-binding domain 4 (designed binder) MAQHDEAGLALEKPEEPREEVTIRVNLIFADGATQTAEFKGTFEEATAEAYRYADLLAKVNGEYTADLEDGGYTINIKFAGALPSKSKKILKEAKKLNKAQAPKKKK | 61.6 |  |
| modified product PL-061 of immunoglobulin-binding domain 3 (designed binder) MAQHDEAGLALETPEEPREEVTIRVNLIFADGRIQTAEFRGTFEEATAKAYAYANLLAKENGEYTADLEDGGNTINIKFAGALPSKSKKILKEAKKLNKAQAPKKKK | 59.8 |  |
| modified product PL-035 of immunoglobulin-binding domain 4 (designed binder) MAQHDEAGLALETPEEPREEVTIRVNLIFADGKTQTAEFKGTFEEATAEAYRYADLLAKVNGEYTADLEDGGYTINIKFAGALPSKSKKILKEAKKLNKAQAPKKKK | 56.9 |  |
| modified product PL-058 of immunoglobulin-binding domain 4 (designed binder) MAQHDEAGLALEKPEEPREEVTIKVNLIFADGRTQTAEFRGTFEEATAEAYRYADLLAKVNGEYTADLEDGGYTINIKFAGALPSKSKKILKEAKKLNKAQAPKKKK | 58.6 |  |
| modified product PL-051 of immunoglobulin-binding domain 4 (designed binder) MAQHDEAGLALEKPEEPREEVTIRVNLIFADGLTQTAEFKGTFEEATAEAYRYADLLAKVNGEYTADLEDGGYTINIKFAGALPSKSKKILKEAKKLNKAQAPKKKK | 57.3 |  |
| modified product PL-059 of immunoglobulin-binding domain 4 (designed binder) MAQHDEAGLALEKPEEPREEVTIKVNLIFADGKTQTAEFRGTFEEATAEAYRYADLLAKVNGEYTADLEDGGYTINIKFAGALPSKSKKILKEAKKLNKAQAPKKKK | 56.1 |  |
| modified product PL-044 of immunoglobulin-binding domain 4 (designed binder) MAQHDEAGLALEKPEEPKEEVTIKVNLIFADGRTQTAEFKGTFEEATAEAYRYADLLAKVNGEYTADLEDGGYTINIKFAGALPSKSKKILKEAKKLNKAQAPKKKK | 58.9 |  |
| modified product PL-057 of immunoglobulin-binding domain 4 (designed binder) MAQHDEAGLALEKPEEPREEVTIRVNLIFADGKTQTAEFRGTFEEATAEAYRYADLLAKVNGEYTADLEDGGYTINIKFAGALPSKSKKILKEAKKLNKAQAPKKKK | 55.6 |  |
| modified product PL-024 of immunoglobulin-binding domain 4 (designed binder) MAQHDEAGLALETPEEPREEVTIRVNLIFADGRTQTAEFRGTFEEATAEAYRYADLLARVNGEYTADLEDGGYTINIRFAGALPSKSKKILKEAKKLNKAQAPKKKK | 63.4 | increase of binding capacity against PL-014 [4]: 11% |

Reference: patent US20180305414A1
